According to patent US20230265151A1, “GIP/GLP1 CO-AGONIST COMPOUNDS” (priority 2020, published 2023):
Residue numbers refer to the chain shown, from its start.

T1: human glucose-dependent insulinotropic polypeptide (GIP) receptor (human) (UniProt P48546)
T1 sequence (looked up): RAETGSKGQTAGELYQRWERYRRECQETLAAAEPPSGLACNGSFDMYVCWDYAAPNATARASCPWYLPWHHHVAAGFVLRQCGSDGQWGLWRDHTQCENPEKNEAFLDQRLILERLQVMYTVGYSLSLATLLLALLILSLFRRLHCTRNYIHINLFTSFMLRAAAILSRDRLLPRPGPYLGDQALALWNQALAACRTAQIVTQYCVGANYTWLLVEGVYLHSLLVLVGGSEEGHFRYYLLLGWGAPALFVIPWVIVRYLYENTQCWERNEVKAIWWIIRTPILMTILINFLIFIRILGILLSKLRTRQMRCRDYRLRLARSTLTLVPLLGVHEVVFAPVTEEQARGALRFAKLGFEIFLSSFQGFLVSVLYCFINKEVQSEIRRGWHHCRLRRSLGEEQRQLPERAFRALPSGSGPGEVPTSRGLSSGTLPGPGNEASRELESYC

T2: human GIP receptor (human, UniProt P48546 22-466)
T2 sequence (looked up): T1 sequence (looked up)

B1: Example 232 (peptide)
peptide: YXEGTXTSDYXIXLDXKAQXEFIXXLIEGGPSSGAPPPSK
modifications: Y-Aib-EGT-αMeF(2F)-TSDY-Aib-I-αMeL-LD-Orn-K((2-[2-(2-Amino-ethoxy)-ethoxy]-acetyl)2-(γ-Glu)-CO-(CH2)12-CO2H)AQ-Aib-EFI-(D-Glu)-αMeY-LIEGGPSSGAPPPSK((2-[2-(2-Amino-ethoxy)-ethoxyl-acetyl)2-(γ-Glu)-CO-(CH2)12-CO2H)-NH2
B2: Example 245 (peptide)
peptide: B1 peptide with Y10X
modifications: Y-Aib-EGT-αMeF(2F)-TSD-4Pal-Aib-I-αMeL-LD-Orn-K((2-[2-(2-Amino-ethoxy)-ethoxy]-acetyl)2-(γ-Glu)-(10-(4-carboxyphenoxy)decanoyl))AQ-Aib-EFI-(D-Glu)-αMeY-LIEGGPSSGAPPPSK((2-[2-(2-Amino-ethoxy)-ethoxy]-acetyl)2-(γ-Glu)-(10-(4-carboxyphenoxy)decanoyl))-NH2
B3: Example 238 (peptide)
peptide: B1 peptide
modifications: Y-Aib-EGT-αMeF(2F)-TSDY-Aib-I-αMeL-LD-Orn-K((2-[2-(2-Amino-ethoxy)-ethoxy]-acetyl)2-(γ-Glu)-(10-(4-carboxyphenoxy)decanoyl))AQ-Aib-EFI-(D-Glu)-αMeY-LIEGGPSSGAPPPSK((2-[2-(2-Amino-ethoxy)-ethoxy]-acetyl)2-(γ-Glu)-(10-(4-carboxyphenoxy)decanoyl))-NH2
B4: Example 242 (peptide)
peptide: B1 peptide with Y10X, K17I, E21K
modifications: Y-Aib-EGT-αMeF(2F)-TSD-4Pal-Aib-I-αMeL-LD-Orn-IAQ-Aib-K(2-[2-(2-Amino-ethoxy)-ethoxy]-acetyl)2-(γ-Glu)-(11-(4-carboxyphenoxy)undecanoyl)FI-(D-Glu)-αMeY-LIEGGPSSGAPPPSK((2-[2-(2-Amino-ethoxy)-ethoxy]-acetyl)2-(γ-Glu)-(11-(4-carboxyphenoxy)undecanoyl)-NH2)
B5: Example 235 (peptide)
peptide: B1 peptide with K17I, E21K
modifications: Y-Aib-EGT-aMeF(2F)-TSDY-Aib-I-aMeL-LD-Orn-IAQ-Aib-K((2-[2-(2-Amino-ethoxy)-ethoxy]-acetyl)2-(γ-Glu)-CO-(CH2)12-CO2H)FI-(D-Glu)-αMeY-LIEGGPSSGAPPPSK((2-[2-(2-Amino-ethoxy)-ethoxy]-acetyl)2-(γ-Glu)-CO-(CH2)12-CO2H)-NH2
B6: Example 241 (peptide)
peptide: B1 peptide with K17I, E21K
modifications: Y-Aib-EGT-αMeF(2F)-TSDY-Aib-I-αMeL-LD-Orn-IAQ-Aib-K((2-[2-(2-Amino-ethoxy)-ethoxy]-acetyl)2-(γ-Glu)-(10-(4-carboxyphenoxy)decanoyl))FI-(D-Glu)-αMeY-LIEGGPSSGAPPPSK((2-[2-(2-Amino-ethoxy)-ethoxy]-acetyl)2-(γ-Glu)-(10-(4-carboxyphenoxy)decanoyl))-NH2
B7: Example 248 (peptide)
peptide: B1 peptide with Y10X, K17I, E21K
modifications: Y-Aib-EGT-αMeF(2F)-TSD-4Pal-Aib-I-αMeL-LD-Orn-IAQ-Aib-K((2-[2-(2-Amino-ethoxy)-ethoxy]-acetyl)2-(γ-Glu)-(10-(4-carboxyphenoxy)decanoyl))FI-(D-Glu)-αMeY-LIEGGPSSGAPPPSK((2-[2-(2-Amino-ethoxy)-ethoxy]-acetyl)2-(γ-Glu)-(10-(4-carboxyphenoxy)decanoyl))-NH2
B8: Example 234 (peptide)
peptide: YXEGTXTSDYXIXLDXIAQXKFIXXLIKGGPSSGAPPPS
modifications: Y-Aib-EGT-αMeF(2F)-TSDY-Aib-I-αMeL-LD-Orn-IAQ-Aib-K((2-[2-(2-Amino-ethoxy)-ethoxy]-acetyl)2-(γ-Glu)-CO-(CH2)12-CO2H)Fl-(D-Glu)-αMeY-LIK((2-[2-(2-Amino-ethoxy)-ethoxy]-acetyl)2-(γ-Glu)-CO-(CH2)12-CO2H)GGPSSGAPPPS-NH2
B9: Example 236 (peptide)
peptide: B8 peptide with I17K, K28E
modifications: Y-Aib-EGT-αMeF(2F)-TSDY-Aib-I-αMeL-LD-Orn-K((2-[2-(2-Amino-ethoxy)-ethoxy]-acetyl)2-(γ-Glu)-(10-(4-carboxyphenoxy)decanoyl))AQ-Aib-K((2-[2-(2-Amino-ethoxy)-ethoxy]-acetyl)2-(γ-Glu)-(10-(4-carboxyphenoxy)decanoyl))FI-(D-Glu)-αMeY-LIEGGPSSGAPPPS-NH2
B10: Example 237 (peptide)
peptide: B8 peptide with I17K, K21E
modifications: Y-Aib-EGT-αMeF(2F)-TSDY-Aib-I-αMeL-LD-Orn-K((2-[2-(2-Amino-ethoxy)-ethoxy]-acetyl)2-(γ-Glu)-(10-(4-carboxyphenoxy)decanoyl))AQ-Aib-EFI-(D-Glu)-αMeY-LIK((2-[2-(2-Amino-ethoxy)-ethoxy]-acetyl)2-(γ-Glu)-(10-(4-carboxyphenoxy)decanoyl))GGPSSGAPPPS-NH2
B11: Example 243 (peptide)
peptide: B8 peptide with Y10X, I17K, K28E
modifications: Y-Aib-EGT-αMeF(2F)-TSD-4Pal-Aib-I-αMeL-LD-Orn-K((2-[2-(2-Amino-ethoxy)-ethoxy]-acetyl)2-(γ-Glu)-(10-(4-carboxyphenoxy)decanoyl))AQ-Aib-K((2-[2-(2-Amino-ethoxy)-ethoxy]-acetyl)2-(γ-Glu)-(10-(4-carboxyphenoxy)decanoyl))FI-(D-Glu)-αMeY-LIEGGPSSGAPPPS-NH2

molecular target: human glucagon-like peptide-1 (GLP-1) receptor (human) (UniProt P43220); experiment: cell-based or functional assay

Compared with B1, B2 is 3.3-fold higher in cAMP EC50: 0.565 nM for the first, 1.88 nM for the second.

Compared with B3, B4 is 1.8-fold lower in cAMP EC50: 1.03 nM for the first, 0.584 nM for the second.

B5 and B6 are within 1.5-fold of each other in cAMP EC50: 0.295 nM for the first, 0.362 nM for the second.

Going from B7 to B8, the cAMP EC50 falls from 0.537 nM to 0.319 nM (1.7-fold).

Compared with B9, B10 is 1.9-fold higher in cAMP EC50: 0.336 nM for the first, 0.633 nM for the second.

Work on B11 yielded a cAMP EC50 of 0.86 nM.

Compared with B1, B2 is lower in cAMP Emax: 103% for the first, 88.9% for the second.

Going from B3 to B4, the cAMP Emax falls from 107% to 96.3%.

Going from B5 to B6, the cAMP Emax falls from 104% to 91%.

Going from B7 to B8, the cAMP Emax rises from 89.1% to 112%.

First: B9
Second: B10
The cAMP Emax of the first is lower: 96.5% for the first, 102% for the second.

Binder B11 has a cAMP Emax of 93.2%.

molecular target: human glucagon receptor (human) (UniProt P47871); experiment: cell-based or functional assay

B1 and B2 cannot be ordered by cAMP EC50: > 9950 nM for the first, > 9950 nM for the second.

B3 and B4 cannot be ordered by cAMP EC50: > 9950 nM for the first, > 9950 nM for the second.

B5 and B6 cannot be ordered by cAMP EC50: > 9950 nM for the first, > 9950 nM for the second.

B7 and B8 cannot be ordered by cAMP EC50: > 9950 nM for the first, > 9950 nM for the second.

B9 and B10 cannot be ordered by cAMP EC50: > 9950 nM for the first, > 9950 nM for the second.

For B11, the cAMP EC50 was > 9950 nM.

molecular target: T1, human glucose-dependent insulinotropic polypeptide (GIP) receptor (human); experiment: cell-based or functional assay

B1 and B2 are within 1.5-fold of each other in cAMP EC50: 0.0192 nM for the first, 0.0195 nM for the second.

B3 and B4 are within 1.5-fold of each other in cAMP EC50: 0.0214 nM for the first, 0.0197 nM for the second.

B5 and B6 are within 1.5-fold of each other in cAMP EC50: 0.0168 nM for the first, 0.0213 nM for the second.

B7 and B8 are within 1.5-fold of each other in cAMP EC50: 0.0176 nM for the first, 0.0182 nM for the second.

B9 and B10 are within 1.5-fold of each other in cAMP EC50: 0.0154 nM for the first, 0.0186 nM for the second.

B11 was tested, and the cAMP EC50 was 0.0154 nM.

First: B1
Second: B2
The cAMP Emax of the first is higher: 101% for the first, 96.7% for the second.

First: B3
Second: B4
The cAMP Emax of the first is higher: 104% for the first, 100% for the second.

First: B5
Second: B6
The cAMP Emax of the first is lower: 99.3% for the first, 105% for the second.

Compared with B7, B8 is higher in cAMP Emax: 99.2% for the first, 107% for the second.

Compared with B9, B10 is lower in cAMP Emax: 104% for the first, 102% for the second.

Work on B11 yielded a cAMP Emax of 101%.

molecular target: human glucagon receptor (human, UniProt P47871 26-477); experiment: cell-based or functional assay

B1 and B2 cannot be ordered by “cAMP EC50 (1.0% HSA)” value: > 9950 nM for the first, > 9950 nM for the second.

B3 and B4 cannot be ordered by “cAMP EC50 (1.0% HSA)” value: > 9950 nM for the first, > 9950 nM for the second.

B5 and B6 cannot be ordered by “cAMP EC50 (1.0% HSA)” value: > 9950 nM for the first, > 9950 nM for the second.

B7 and B8 cannot be ordered by “cAMP EC50 (1.0% HSA)” value: > 9950 nM for the first, > 9950 nM for the second.

B9 and B10 cannot be ordered by “cAMP EC50 (1.0% HSA)” value: > 9950 nM for the first, > 9950 nM for the second.

For B11, the “cAMP EC50 (1.0% HSA)” value was > 9950 nM.

molecular target: human GLP-1 receptor (human, UniProt P43220 24-463); experiment: cell-based or functional assay

B1 and B2 are within 1.5-fold of each other in “cAMP EC50 (1.0% HSA)” value: 33.6 nM for the first, 27 nM for the second.

Compared with B3, B4 is 7.9-fold higher in “cAMP EC50 (1.0% HSA)” value: 27.2 nM for the first, 214 nM for the second.

Compared with B5, B6 is 5.8-fold lower in “cAMP EC50 (1.0% HSA)” value: 598 nM for the first, 103 nM for the second.

Compared with B7, B8 is 2.8-fold higher in “cAMP EC50 (1.0% HSA)” value: 56.7 nM for the first, 156 nM for the second.

B9 and B10 are within 1.5-fold of each other in “cAMP EC50 (1.0% HSA)” value: 32.6 nM for the first, 38.1 nM for the second.

For B11, the “cAMP EC50 (1.0% HSA)” value was 34.7 nM.

Going from B1 to B2, the “cAMP Emax (1.0% HSA)” value falls from 95.4% to 93.8%.

First: B3
Second: B4
The “cAMP Emax (1.0% HSA)” value of the first is higher: 103% for the first, 102% for the second.

Going from B5 to B6, the “cAMP Emax (1.0% HSA)” value falls from 152% to 105%.

Compared with B7, B8 is higher in “cAMP Emax (1.0% HSA)” value: 92.7% for the first, 102% for the second.

First: B9
Second: B11
The “cAMP Emax (1.0% HSA)” value of the first is higher: 125% for the first, 114% for the second.

molecular target: T2, human GIP receptor; experiment: cell-based or functional assay

First: B1
Second: B2
The “cAMP EC50 (1.0% HSA)” value of the first is 3.4-fold higher: 1.86 nM for the first, 0.552 nM for the second.

Going from B3 to B4, the “cAMP EC50 (1.0% HSA)” value rises from 1.31 nM to 11 nM (8.4-fold).

B5 and B6 are within 1.5-fold of each other in “cAMP EC50 (1.0% HSA)” value: 10.1 nM for the first, 8.02 nM for the second.

First: B7
Second: B8
The “cAMP EC50 (1.0% HSA)” value of the first is 1.8-fold lower: 4.1 nM for the first, 7.58 nM for the second.

B9 and B10 are within 1.5-fold of each other in “cAMP EC50 (1.0% HSA)” value: 0.641 nM for the first, 0.889 nM for the second.

For B11, the “cAMP EC50 (1.0% HSA)” value was 0.728 nM.

Compared with B4, B5 is higher in “cAMP Emax (1.0% HSA)” value: 83.9% for the first, 92.2% for the second.

First: B6
Second: B7
The “cAMP Emax (1.0% HSA)” value of the first is lower: 84.9% for the first, 91.8% for the second.

First: B8
Second: B9
The “cAMP Emax (1.0% HSA)” value of the first is higher: 84.4% for the first, 80.5% for the second.

For B10, the “cAMP Emax (1.0% HSA)” value was 93.1%.
